Molecular target: the molecule itself
Assay: SEC; HiLoad Superdex 200 HR column, 20 mM Na-Hepes, 200 mM NaCl, pH 7.0, 0.7 mL/min, 4 °C; relative molecular mass of the oligomeric forms estimated from a calibration curve with standard proteins

B1: human phenylalanine hydroxylase (enzyme, UniProt P00439 1-452, looked up)
chain: MSTAVLENPGLGRKLSDFGQETSYIEDNCNQNGAISLIFSLKEEVGALAKVLRLFEENDVNLTHIESRPSRLKKDEYEFFTHLDKRSLPALTNIIKILRHDIGATVHELSRDKKKDTVPWFPRTIQELDRFANQILSYGAELDADHPGFKDPVYRARRKQFADIAYNYRHGQPIPRVEYMEEEKKTWGTVFKTLKSLYKTHACYEYNHIFPLLEKYCGFHEDNIPQLEDVSQFLQTCTGFRLRPVAGLLSSRDFLGGLAFRVFHCTQYIRHGSKPMYTPEPDICHELLGHVPLFSDRSFAQFSQEIGLASLGAPDEYIEKLATIYWFTVEFGLCKQGDSIKAYGAGLLSSFGELQYCLSEKPKLLPLELEKTAIQNYTVTEFQPLYYVAESFNDAKEKVRNFAATIPRPFSVRYDPYTQRIEVLDNTQQLKILADSINSEIGILCSALQKIK
notes: human phenylalanine hydroxylase (hPAH), expressed in E. coli as a fusion protein; a His tag is inferred from pTrcHis and the Ni resin; The tetrameric fraction from SEC was used as the fusion protein; also called hPAH; Human PAH; source: E. coli, fusion protein, purified (Ni-chelating resin, SEC)
- stoichiometry N: 4

Source: article PMC8000282, “In Silico and In Vitro Tailoring of a Chitosan Nanoformulation of a Human Metabolic Enzyme” (Pharmaceutics, 2021)
